Patent publication EP4471049A1 (Zealand Pharma A/S, priority 2023, dated 2024)
Read-outs that look alike come from different tables or passages of the source. *1 amine or outer side, *2 acyl side, *3 side chain or, on linkers, in order; H or OH if unused. Where a SMILES comes first, the peptide text is derived from it. Bridges are numbered along the chain shown (N, C = ends). [ ]: non-standard residue; d: D form. 4‑Aminomethyl‑phenylacetyl = 4-aminomethyl-phenylacetyl unit, its amine closes the lactam, O=C(Cc1ccc(CN[*:1])cc1)[*:2]; 2Nal = N[C@@H](Cc1ccc2ccccc2c1)C(=O)O; AEF = NCCOc1ccc(C[C@H](N)C(=O)O)cc1; X1 = O=C(Cc1ccc(CN[*:1])cc1)[*:2]; 3Pal = N[C@@H](Cc1cccnc1)C(=O)O; αMeL = CC(C)C[C@](C)(N)C(=O)O; β3hL = CC(C)C[C@H](N)CC(=O)O; 3Amb = NCc1cccc(C(=O)O)c1; Dab = NCC[C@H](N)C(=O)O

Columns and labels:
human IL-23R = target: T1, human IL-23R (Homo sapiens, UniProt Q5VWK5); assay: biochemical
T1 sequence (Q5VWK5 22-629): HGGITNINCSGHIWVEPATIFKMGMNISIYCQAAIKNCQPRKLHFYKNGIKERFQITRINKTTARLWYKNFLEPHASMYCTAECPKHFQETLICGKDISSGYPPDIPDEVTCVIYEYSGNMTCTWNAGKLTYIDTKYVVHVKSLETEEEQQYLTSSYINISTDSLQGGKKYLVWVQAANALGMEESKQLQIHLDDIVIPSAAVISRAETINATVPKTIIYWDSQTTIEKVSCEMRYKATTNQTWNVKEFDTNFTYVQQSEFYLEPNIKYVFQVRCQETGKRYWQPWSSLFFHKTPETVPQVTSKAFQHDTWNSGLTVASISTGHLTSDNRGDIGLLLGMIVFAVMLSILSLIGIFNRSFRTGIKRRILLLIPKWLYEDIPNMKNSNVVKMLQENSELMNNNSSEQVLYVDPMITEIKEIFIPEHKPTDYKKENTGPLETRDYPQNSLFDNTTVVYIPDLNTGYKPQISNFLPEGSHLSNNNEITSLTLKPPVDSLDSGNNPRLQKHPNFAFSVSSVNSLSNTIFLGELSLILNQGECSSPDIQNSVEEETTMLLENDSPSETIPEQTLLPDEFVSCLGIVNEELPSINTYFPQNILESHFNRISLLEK
How it was run: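 BRET displacement of a TAMRA-labelled reference compound from N-terminal Nanoluc-IL-23R fusion protein in membranes from stably transfected HEK293 cells. Incubation 2 h at room temperature, then Nanoluc substrate was added and the TAMRA/Nanoluc ratio read. IC50 and maximal displacement came from 4-parameter logistic fits.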

[1] = target: IL-23 mediated STAT3 signalling (Homo sapiens, UniProt Q5VWK5); assay: Functional inhibition of IL-23 mediated STAT3 signalling (phospho-STAT3 Tyr705 MSD, DB cells); type: cell-based
Description: The ability of compounds to inhibit IL-23 mediated signalling was determined in the human-derived DB cell line (CRL-2289) (hereafter referred to as DB cells), which endogenously expresses the human IL-23R and human IL-12R β1 subunits. Upon binding of IL-23, the IL-23R forms a heterodimer signalling complex together with IL-12R β1, which through the JAK2/STAT3 pathway promotes phosphorylation of STAT3 to form phospho-STAT3. In the assay, the functional antagonism of IL-23 mediated phospho-STAT3 formation in DB cells by the compound is quantified using reagents capable of measuring the phosphorylation state of Tyr705 of STAT3 in the form of a phospho-STAT3 (Tyr705) MSD (Meso Scale Discovery) kit.
[…]. For compounds tested in this assay, the response was normalized relative to control values to calculate the IC50 and maximal inhibitory response from a concentration response curve of the compound in presence of a fixed concentration of human IL-23.
The assay procedure was as follows. DB cells were maintained in growth medium consisting of RPMI-1640 [Invitrogen 61870-010] supplemented with 10% V/V Foetal Bovine Serum (FBS) [(heat inactivated), Invitrogen 10270-106], and 1% V/V Penicillin-Streptomycin (Pen-Strep) Solution [Invitrogen 15140]. On the day of assay, cells were resuspended in Assay buffer consisting of RPMI-1640 [Invitrogen 61870-010] supplemented with 0.1 % w/V BSA [Sigma-Aldrich A9430] to a density of 7.5x10^6 cells/mL. Compounds to be tested for inhibition of hIL-23 mediated signalling were serially diluted in Assay buffer to 3X the final concentration. A solution of hIL-23 corresponding to 3X the EC80 of hIL-23 (1.7 nM) was also prepared in Assay buffer. To initiate the assay, 20 µL of DB cell suspension (corresponding to 150.000 cells/well) was added to the wells of a 96-well V-bottom Polypropylene plate [Corning 3363] followed by addition of 3X 20 µL of the diluted test compounds to separate wells. Following preincubation of the DB cells with inhibitor for 15 min in a cell incubator (37 °C, 5% CO2), 20 µL of the prepared 3X the EC80 of hIL-23 solution was added to each well and incubated for 90 min in a cell incubator (37 °C, 5% CO2). For some wells buffer only or IL-23 only corresponding to the EC80 was added to obtain readouts needed for normalization. To terminate the assay, the plate was spun at 1000 G for 5 min to pellet cells, the supernatant removed using an 8-channel manual pipette, and then added 50 µL/well Complete Lysis Buffer from the MSD STAT3 kit (Cat# K150SVD, Mesoscale) to the cell pellet. To completely lyse cells to release phospho-STAT3 for detection, the plate was shaken for 10 min at room temperature (500 rpm) sealed with aluminium foil and placed at -80 °C for a minimum of 15 min. Detection of the phospho-STAT3 level in the cell lysate from the individual wells was determined using the MSD STAT3 kit (Cat# K150SVD, Mesoscale) and read on a Meso QuickPlex SQ 120 plate reader (Mesoscale).
For data analysis raw data counts from the Meso QuickPlex SQ 120 plate reader were normalized relative to the response by the EC80 of hIL-23 alone (no compound added) and the buffer level. Compound potency (IC50) and maximal inhibitory response (% inhibition) were estimated by computer-aided curve fitting using a 4-parameter logistic (4PL) non-linear model. […]. Typically compounds with a low IC50 are desired. Typically compounds capable of completely inhibiting the IL23-induced response are desired. […]. Table 3-2: hIL-23 (pSTAT3) antagonist IC50 and % inhibition data

[2] = target: T2, human IL-23R endogenously expressed on DB cells (human, UniProt Q5VWK5 24-629); assay: cell-based or functional assay
T2 sequence (looked up): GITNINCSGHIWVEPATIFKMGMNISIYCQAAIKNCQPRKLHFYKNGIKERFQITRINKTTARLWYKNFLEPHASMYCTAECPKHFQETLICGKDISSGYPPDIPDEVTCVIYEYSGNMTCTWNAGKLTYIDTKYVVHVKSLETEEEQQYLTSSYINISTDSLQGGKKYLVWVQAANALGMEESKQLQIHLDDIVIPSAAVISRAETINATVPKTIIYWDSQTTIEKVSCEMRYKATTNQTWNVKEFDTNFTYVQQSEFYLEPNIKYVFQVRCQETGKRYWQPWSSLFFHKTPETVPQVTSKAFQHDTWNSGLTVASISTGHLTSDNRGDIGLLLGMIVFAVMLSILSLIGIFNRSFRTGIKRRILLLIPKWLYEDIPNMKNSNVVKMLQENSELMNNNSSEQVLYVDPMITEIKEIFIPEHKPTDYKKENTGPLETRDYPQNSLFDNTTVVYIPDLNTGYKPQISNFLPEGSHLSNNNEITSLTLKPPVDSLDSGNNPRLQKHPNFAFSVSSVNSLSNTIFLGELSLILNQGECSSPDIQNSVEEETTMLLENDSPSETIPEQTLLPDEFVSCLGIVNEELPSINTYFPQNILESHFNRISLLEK

[3] = target: T3, Nluc-IL23R fusion protein (human, UniProt Q5VWK5 22-629); assay: BRET competition vs TAMRA-labelled peptide, Nluc-IL23R membranes
T3 construct: range 22-629; expressed with a secretion signal in HEK293 cells; used as crude membrane preparation; also called hIL-23R; human IL-23R; not shown: Nanoluc protein from the expression plasmid N1371 (Promega), N-terminal of IL-23R
T3 sequence (looked up): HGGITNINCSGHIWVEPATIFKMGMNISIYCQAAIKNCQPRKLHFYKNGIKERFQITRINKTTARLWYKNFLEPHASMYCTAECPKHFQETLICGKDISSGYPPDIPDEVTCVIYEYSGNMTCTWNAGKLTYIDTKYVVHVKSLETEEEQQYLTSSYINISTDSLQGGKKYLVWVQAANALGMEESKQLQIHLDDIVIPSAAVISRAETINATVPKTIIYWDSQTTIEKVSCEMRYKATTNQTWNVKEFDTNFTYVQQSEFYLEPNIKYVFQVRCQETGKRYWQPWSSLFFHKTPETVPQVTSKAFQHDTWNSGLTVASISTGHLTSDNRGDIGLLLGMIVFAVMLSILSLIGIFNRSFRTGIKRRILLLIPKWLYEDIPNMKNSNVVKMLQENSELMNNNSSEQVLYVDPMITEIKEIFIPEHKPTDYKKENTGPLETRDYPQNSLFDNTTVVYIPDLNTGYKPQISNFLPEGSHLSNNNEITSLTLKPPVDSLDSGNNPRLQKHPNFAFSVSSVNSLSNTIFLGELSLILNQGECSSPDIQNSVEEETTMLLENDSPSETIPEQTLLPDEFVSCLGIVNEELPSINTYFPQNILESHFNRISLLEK

[4] = target: T3, Nluc-IL23R fusion protein; assay: as above; remark: listed apart in the source
[5] = target: T3, Nluc-IL23R fusion protein; assay: as above; remark: listed apart in the source
[6] = target: T3, Nluc-IL23R fusion protein; assay: Ki from BRET competition (Cheng-Prusoff), Nluc-IL23R membranes

## CC(C)C[C@]1(C)NC(=O)[C@H](Cc2ccc3ccccc3c2)NC(=O)[C@H](Cc2ccc(OCCN)cc2)NC(=O)[C@@H]2CCNC(=O)CC[C@H](NC(=O)[C@H](CO)NC(=O)Cc3ccc(cc3)CNC(=O)CC[C@@H](C(=O)NCC[C@H](N)C(=O)N[C@@](C)(Cc3cccnc3)C(N)=O)NC1=O)C(=O)N[C@@H](Cc1c[nH]c3ccccc13)C(=O)N[C@@H](CCC(N)=O)C(=O)N2 [Compound 15, [4-Aminomethyl-phenylacetyl](1c)*SE(2c)WQ[Dab](2c)[Y(2-aminoethoxy)][2-Nal][2-Me-Leu]E(1c)[Iso-Dab][2-Me-3-(3-Pyridyl)-Ala]-[NH2]]
Human IL-23R
  % displacement (hIL-23R binding): 96%
  IC50: 0.45 nM
[1]; Table 3-2, EC80 of hIL-23, read-out: hIL-23 (pSTAT3) antagonist IC50
  IC50: 12 nM

## CC(C)C[C@@H](CC(N)=O)NC(=O)[C@H](Cc1cccnc1)NC(=O)[C@H](CCN)NC(=O)[C@@H]1CCC(=O)NCc2ccc(cc2)CC(=O)N[C@@H](CO)C(=O)N[C@H]2CCC(=O)NCC[C@H](NC(=O)[C@H](CCC(N)=O)NC(=O)[C@H](Cc3c[nH]c4ccccc34)NC2=O)C(=O)N[C@@H](Cc2ccc(OCCN)cc2)C(=O)N[C@@H](Cc2ccc3ccccc3c2)C(=O)N[C@@](C)(CC(C)C)C(=O)N1 [Compound 11, [4-Aminomethyl-phenylacetyl](1c)*SE(2c)WQ[Dab](2c)[Y(2-aminoethoxy)][2-Nal][2-Me-Leu]E(1c)[Dab][3-(3-Pyridyl)-Ala][beta-hLeu]-[NH2]] ([X1]SEWQ[Dab][AEF][2Nal][αMeL]E[Dab][3Pal][β3hL]-NH2; lactam 3-6, N-10)
Human IL-23R
  % displacement (hIL-23R binding): 103%
[1]; Example 2 (Tables 2-1 to 2-4), read-out: IC50 (pSTAT3)
  IC50: 0.68 nM

B1: Compound 20 (peptide)
peptide: [4‑Aminomethyl‑phenylacetyl]AEWQ[Dab][AEF][2Nal][αMeL]E[Dab][3Pal]-NHMe
modifications: lactam N-10, 3-6
SMILES: CNC(=O)[C@H](Cc1cccnc1)NC(=O)[C@H](CCN)NC(=O)[C@@H]1CCC(=O)NCc2ccc(cc2)CC(=O)N[C@@H](C)C(=O)N[C@H]2CCC(=O)NCC[C@H](NC(=O)[C@H](CCC(N)=O)NC(=O)[C@H](Cc3c[nH]c4ccccc34)NC2=O)C(=O)N[C@@H](Cc2ccc(OCCN)cc2)C(=O)N[C@@H](Cc2ccc3ccccc3c2)C(=O)N[C@@](C)(CC(C)C)C(=O)N1
[2]
  hIL-23 (pSTAT3) antagonist % inhibition: 101%
  hIL-23 (pSTAT3) antagonist IC50: 26 pM
[3]
  % displacement (hIL-23R binding): 97%

B2: Ref 17 (peptide)
peptide: Ac-DESCWQCW[2Nal]LKR-NH2
modifications: lactam 2-11; bridge 4-7; not fully specified (bridges); printed as [Ac]-DE(1c)SC(2a)WQC(2a)W[2-Nal]LK(1c)R-[NH2]
[4]
  IC50: 87 nM
[5]
  IC50: 87 nM
[2]
  hIL-23 (pSTAT3) antagonist IC50: 370 nM

## H-DESCWQCWWLKR-NH2 (lactam 2-11; bridge 4-7; not fully specified (bridges)) [Ref 4]
[4]
  % displacement (hIL-23R binding): 100%
  IC50: 180 nM
[5]
  IC50: 180 nM
[2]
  hIL-23 (pSTAT3) antagonist % inhibition: 87%
  hIL-23 (pSTAT3) antagonist IC50: 850 nM

B3: Ref 37 (peptide)
peptide: [3Amb]SCWQCW[2Nal]LER-NH2
modifications: lactam N-10; bridge 3-6; not fully specified (bridges); printed as [(3-Aminomethyl)benzoyl](1c)*SC(2a)WQC(2a)W[2-Nal]LE(1c)R-[NH2]
[4]
  % displacement (hIL-23R binding): 103%
  IC50: 12 nM
[5]
  IC50: 12 nM
[2]
  hIL-23 (pSTAT3) antagonist % inhibition: 89%
  hIL-23 (pSTAT3) antagonist IC50: 45 nM

B4: Ref 41 (peptide)
peptide: [3Amb]SCWQC[AEF][2Nal][αMeL]E[dR]-NH2
modifications: lactam N-10; bridge 3-6; not fully specified (bridges); printed as [(3-Aminomethyl)benzoyl](1c)*SC(2a)WQC(2a)[Y(2-aminoethoxy)][2-Nal][2-Me-Leu]E(1c)[{d}R]-[NH2]
notes: Y = Y(2-aminoethoxy), R = D-Arg
[4]
  % displacement (hIL-23R binding): 110%
  IC50: 2.8 nM
[6]
  Ki: 2.31 nM
[5]
  IC50: 2.8 nM
[2]
  hIL-23 (pSTAT3) antagonist % inhibition: 99%
  hIL-23 (pSTAT3) antagonist IC50: 29 nM

B5: Ref 18 (peptide)
peptide: Ac-KSCWQCW[2Nal]LER-NH2
modifications: lactam 1-10; bridge 3-6; not fully specified (bridges); printed as [Ac]-K(1c)SC(2a)WQC(2a)W[2-Nal]LE(1c)R-[NH2]
[4]
  % displacement (hIL-23R binding): 103%
  IC50: 3.5 nM
[5]
  IC50: 3.5 nM
[2]
  hIL-23 (pSTAT3) antagonist % inhibition: 97%
  hIL-23 (pSTAT3) antagonist IC50: 18 nM
